pKd: −log10 of the molar value.
Biological target: biotinylated VP1 pentamer of BKV genotype I (BK virus genotype I) (UniProt P03088)
Test: BLI, biotinylated VP1 pentamer on streptavidin sensor, mAb 0 to 40 nM

MTX005 from Memo Therapeutics AG (referred as 319C07 in WO2021/250097) (antibody)
pKd: 7.75
